Reference: JP2000236884A

Target: ヒトIL−18 (human interleukin-18, polypeptide having the amino acid sequence of SEQ ID NO 21) (human), Q14116
Test: cell-based or functional assay
Conditions: scale: fold molar concentration against #125-2HmAb

B1: scFv peptide with His6 of Example 2-2, encoded by pEscFv#125-2H.HT (SEQ ID NO 10) (scFv)
scFv: EIQLQQSGPELVKPGASVKVSCKASGYSFTDYFIYWVKQSHGKSLEWIGDIDPYNGDTSYNQKFRDKATLTVDQSSTTAFMHLNSLTSEDSAVYFCARGLRFWGQGTLVTVSAGGGGGGSGGGGSGGGGSDIQMTQSPSSLSASLGERVSLTCRASQDIGSKLYWLQQEPDGTFKRLIYATSSLDSGVPKRFSGSRSGSDYSLTISSLESEDFVDYYCLQYASSPYTFGGGTKLAIKHHHHHH
molar concentration needed for the same IL-18 neutralisation as #125-2HmAb (IFN-γ induction in KG-1 cells): 2
